This passage reports Kd results from paper PMC9652321, “Structural basis of human SNAPc recognizing proximal sequence element of snRNA promoter”.

In general, Kd refers to the equilibrium constant for the complex coming apart.

In this data set the target is T1, mSNAPc#2 SNAP190-R445A (Homo sapiens, UniProt Q5SXM2;Q92966;Q16533;O75971 1-505;1-411;1-268;1-98, R445A).
T1 sequence 1: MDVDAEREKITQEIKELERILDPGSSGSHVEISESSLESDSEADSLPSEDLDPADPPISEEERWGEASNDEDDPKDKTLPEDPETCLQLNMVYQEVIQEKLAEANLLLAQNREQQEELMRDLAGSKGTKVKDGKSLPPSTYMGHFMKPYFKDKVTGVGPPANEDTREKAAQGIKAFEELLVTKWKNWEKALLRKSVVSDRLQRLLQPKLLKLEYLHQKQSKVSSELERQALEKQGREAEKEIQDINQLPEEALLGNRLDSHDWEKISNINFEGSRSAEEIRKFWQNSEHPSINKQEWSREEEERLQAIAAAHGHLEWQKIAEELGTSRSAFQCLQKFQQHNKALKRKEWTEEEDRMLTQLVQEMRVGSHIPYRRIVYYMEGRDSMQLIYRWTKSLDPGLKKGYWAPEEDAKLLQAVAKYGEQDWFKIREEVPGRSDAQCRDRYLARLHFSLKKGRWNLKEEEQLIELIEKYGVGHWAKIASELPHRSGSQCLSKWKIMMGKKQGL
T1 sequence 2: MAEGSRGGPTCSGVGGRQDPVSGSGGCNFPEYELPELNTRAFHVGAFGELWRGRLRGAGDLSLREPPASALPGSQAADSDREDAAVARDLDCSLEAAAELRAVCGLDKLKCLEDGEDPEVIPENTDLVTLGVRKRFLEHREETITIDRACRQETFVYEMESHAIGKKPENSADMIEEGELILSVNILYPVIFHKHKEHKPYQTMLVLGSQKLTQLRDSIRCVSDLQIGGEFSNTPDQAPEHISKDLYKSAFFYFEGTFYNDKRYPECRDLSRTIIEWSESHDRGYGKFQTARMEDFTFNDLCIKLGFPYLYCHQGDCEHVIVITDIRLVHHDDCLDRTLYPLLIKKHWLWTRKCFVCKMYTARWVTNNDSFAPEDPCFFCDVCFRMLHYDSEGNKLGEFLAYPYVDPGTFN
T1 sequence 3: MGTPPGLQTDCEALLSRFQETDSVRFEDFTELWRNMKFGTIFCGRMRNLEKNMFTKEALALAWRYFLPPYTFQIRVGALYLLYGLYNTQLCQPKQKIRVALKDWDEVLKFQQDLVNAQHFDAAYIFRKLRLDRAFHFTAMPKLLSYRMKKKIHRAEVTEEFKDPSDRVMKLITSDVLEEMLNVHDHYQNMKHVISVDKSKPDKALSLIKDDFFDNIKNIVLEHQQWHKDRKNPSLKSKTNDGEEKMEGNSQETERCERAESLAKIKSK
T1 sequence 4: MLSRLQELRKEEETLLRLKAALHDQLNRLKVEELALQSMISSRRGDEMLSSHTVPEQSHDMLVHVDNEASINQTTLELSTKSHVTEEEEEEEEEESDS
The data set is described as follows: SPR; EMSA: 100 mM KCl, 25 mM HEPES-K pH 7.6, 12.5 mM MgCl2, 10 uM ZnCl2, 0.1 mM EDTA, 10% glycerol, 3 mM DTT, 0.5 mM PMSF, 50 nM DNA, RT 30 min; SPR: 100 mM KCl, 12.5 mM MgCl2, 10 uM ZnCl2, 0.1 mM EDTA, 0.05% P20, 25 C. To be noted: protein: recombinant; tags: as P1; copies: 1;1;1;1. On the technique in general: Surface plasmon resonance follows binding to a sensor surface in real time, without labels.

B1: 25 bp hU6-1 PSE (SPR) (dsDNA)
DNA 1: TGCTTACCGTAACTTGAAAGTATTT
DNA 2: AAATACTTTCAAGTTACGGTAAGCA
B1: the dissociation constant Kd was determined as 603 nM.
